Values of other authors in publication PMC6928821.
pKd: −log10 of the molar value. Read-outs that look alike come from different tables or passages of the source.

How the values were obtained:
[1] = molecular target: p300 (Homo sapiens) (UniProt Q09472)
[2] = molecular target: p300 Taz2 (Homo sapiens) (UniProt Q09472)
[3] = molecular target: p300 Taz2 (Homo sapiens) (UniProt Q09472); remark: listed apart in the source

p53 TAD1 TAD1, sequence (P04637 13-37): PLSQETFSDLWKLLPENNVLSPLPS
p300 Taz2 (Homo sapiens), sequence (Q09472 1723-1836): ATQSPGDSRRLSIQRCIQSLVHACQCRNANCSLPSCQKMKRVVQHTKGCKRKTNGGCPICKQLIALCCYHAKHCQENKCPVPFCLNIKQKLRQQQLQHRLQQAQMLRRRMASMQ
p300 (Homo sapiens), sequence (Q09472 2-2414): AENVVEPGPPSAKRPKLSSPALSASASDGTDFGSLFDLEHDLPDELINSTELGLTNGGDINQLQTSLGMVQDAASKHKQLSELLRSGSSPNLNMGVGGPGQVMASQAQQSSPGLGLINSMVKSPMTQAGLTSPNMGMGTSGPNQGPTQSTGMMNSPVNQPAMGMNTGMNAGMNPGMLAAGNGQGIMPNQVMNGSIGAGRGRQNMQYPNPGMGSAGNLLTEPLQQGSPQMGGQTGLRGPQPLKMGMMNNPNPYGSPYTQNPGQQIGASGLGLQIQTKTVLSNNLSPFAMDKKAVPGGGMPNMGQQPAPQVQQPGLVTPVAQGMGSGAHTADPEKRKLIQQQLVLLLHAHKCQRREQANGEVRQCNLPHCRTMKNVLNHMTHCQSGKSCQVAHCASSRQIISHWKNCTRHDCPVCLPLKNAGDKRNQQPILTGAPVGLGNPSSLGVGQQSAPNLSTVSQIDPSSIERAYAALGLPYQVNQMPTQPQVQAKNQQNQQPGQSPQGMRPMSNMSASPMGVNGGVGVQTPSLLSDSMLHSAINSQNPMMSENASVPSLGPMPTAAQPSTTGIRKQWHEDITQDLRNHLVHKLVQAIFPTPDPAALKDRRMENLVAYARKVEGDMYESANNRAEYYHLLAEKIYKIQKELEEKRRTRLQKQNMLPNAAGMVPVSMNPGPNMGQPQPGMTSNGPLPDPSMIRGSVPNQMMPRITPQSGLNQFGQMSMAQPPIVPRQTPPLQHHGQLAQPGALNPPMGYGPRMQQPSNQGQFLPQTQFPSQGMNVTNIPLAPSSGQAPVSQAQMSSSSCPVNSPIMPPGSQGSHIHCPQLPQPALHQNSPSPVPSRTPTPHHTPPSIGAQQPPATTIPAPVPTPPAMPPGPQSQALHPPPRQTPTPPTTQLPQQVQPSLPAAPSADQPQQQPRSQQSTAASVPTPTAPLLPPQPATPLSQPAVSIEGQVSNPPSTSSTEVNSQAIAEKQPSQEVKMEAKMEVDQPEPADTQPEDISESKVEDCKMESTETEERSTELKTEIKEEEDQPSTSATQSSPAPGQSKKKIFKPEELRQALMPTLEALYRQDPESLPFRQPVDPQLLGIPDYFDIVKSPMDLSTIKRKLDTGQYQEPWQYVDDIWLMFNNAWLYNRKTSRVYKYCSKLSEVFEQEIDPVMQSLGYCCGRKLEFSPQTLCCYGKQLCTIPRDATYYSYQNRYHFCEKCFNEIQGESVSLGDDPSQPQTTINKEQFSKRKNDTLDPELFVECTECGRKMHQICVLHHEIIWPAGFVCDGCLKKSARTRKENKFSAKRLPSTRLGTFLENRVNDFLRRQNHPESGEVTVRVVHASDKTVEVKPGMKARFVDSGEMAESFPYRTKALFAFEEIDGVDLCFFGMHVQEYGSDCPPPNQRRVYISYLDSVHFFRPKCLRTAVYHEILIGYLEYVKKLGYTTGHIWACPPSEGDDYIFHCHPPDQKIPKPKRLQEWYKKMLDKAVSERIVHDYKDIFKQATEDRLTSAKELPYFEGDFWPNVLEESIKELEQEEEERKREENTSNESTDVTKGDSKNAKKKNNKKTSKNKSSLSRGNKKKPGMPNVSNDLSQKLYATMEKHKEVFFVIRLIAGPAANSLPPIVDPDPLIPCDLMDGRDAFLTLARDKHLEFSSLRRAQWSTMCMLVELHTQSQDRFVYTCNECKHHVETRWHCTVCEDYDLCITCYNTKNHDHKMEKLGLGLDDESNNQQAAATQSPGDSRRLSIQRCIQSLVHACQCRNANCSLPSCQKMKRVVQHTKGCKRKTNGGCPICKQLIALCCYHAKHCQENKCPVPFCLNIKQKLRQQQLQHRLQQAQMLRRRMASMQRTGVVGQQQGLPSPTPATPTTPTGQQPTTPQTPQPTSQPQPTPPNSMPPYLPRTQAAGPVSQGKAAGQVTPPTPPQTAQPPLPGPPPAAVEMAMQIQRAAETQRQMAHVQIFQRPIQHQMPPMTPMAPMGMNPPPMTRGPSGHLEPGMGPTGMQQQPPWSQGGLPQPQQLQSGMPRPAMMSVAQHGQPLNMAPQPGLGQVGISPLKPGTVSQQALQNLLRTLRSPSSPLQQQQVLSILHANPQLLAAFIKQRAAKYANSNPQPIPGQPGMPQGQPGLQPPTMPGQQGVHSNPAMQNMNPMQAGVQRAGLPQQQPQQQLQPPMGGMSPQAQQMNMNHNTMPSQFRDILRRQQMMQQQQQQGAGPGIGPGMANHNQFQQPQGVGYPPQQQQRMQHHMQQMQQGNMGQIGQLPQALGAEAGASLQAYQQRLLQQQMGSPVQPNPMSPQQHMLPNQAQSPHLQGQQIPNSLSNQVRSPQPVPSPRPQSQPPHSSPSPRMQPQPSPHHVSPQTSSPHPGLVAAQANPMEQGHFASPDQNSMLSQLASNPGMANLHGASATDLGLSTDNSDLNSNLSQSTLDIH
p53 TAD1 1-39, sequence (P04637 1-39): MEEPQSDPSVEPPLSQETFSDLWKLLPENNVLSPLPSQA

| Substance | pKd [1] | pKd [2] | pKd [3] |
| --- | --- | --- | --- |
| p53 TAD1 1-39 (from UniProt P04637) | 5.52 |  |  |
| p53 TAD1 TAD1 (from UniProt P04637) |  | 5.52 | 6.70 |
